Laboratory results from patent publication US10704056B2, “Constitutively active ABA receptor mutants” (The Regents of the University of California, priority 2011, dated 2020).

Assays:
[1] = test system: ABA-regulated genes Em6, LEA and Rd29b; assay: qRT-PCR of ABA-regulated genes in imbibed seeds; type: in vivo, Arabidopsis; settings: seeds imbibed 32 hours, no ABA treatment; 35S-driven lines
Experimental: To investigate if other ABA responses are affected in the PYL2^CA3 lines, we profiled the expression levels of several ABA-regulated genes using quantitative RT-PCR (qRT-PCR). For these experiments, seeds of Col, 35S::PYL2, and two independent 35S:: PYL2^CA3 transgenic lines were imbibed for 32 hours in either water or 5 μM ABA at room temperature under continuous illumination, after which RNA was isolated using Concert™ Plant RNA Reagent and utilized in qRT-PCR reactions using primers for the ABA-regulated genes Em6 (At2g40170), LEA (At2g21490), and Rd29b (At5g52300). Biological duplicates with triple technical replicate measurements were conducted and gene expression levels were determined. […] Real-time quantitative PCR analysis was performed by ΔΔCt method of relative quantification. […]
Wild type or transgenic lines were imbibed for 32 hours in either water or 5 μM ABA at room temperature under continuous illumination, after which RNA was isolated using Concert™ Plant RNA Reagent followed by LiCl2 precipitation and DNase treated using RNase-free DNAse (Ambion). […] Biological duplicates with triple technical replicate measurements were conducted and gene expression levels were determined. […] Real-time quantitative PCR analysis was performed by ΔΔCt method of relative quantification. […]

aba2-1 mutant seeds = assay: Germination of aba2-1 background seeds on paclobutrazol or NaCl; type: in vivo, Arabidopsis; settings: 35S-driven transgene, germination 72 hours
Source text: As a further test of the ability of PYL2^CA3 to activate ABA signaling in vivo, we examined the ability of this allele to revert phenotypes caused by ABA deficiency, reasoning that effective activation of the ABA pathway should suppress phenotypes observed in the aba2 mutant. […] To test this, we examined the germination of various genotypes on paclobutrazol, an inhibitor of GA biosynthesis. Wild-type seed germination is blocked by paclobutrazol treatment but aba2 mutants germinate due to defects in ABA-induced seed dormancy. We also examined the germination of various genotypes in the presence of NaCl, which, like paclobutrazole, inhibits seed germination in an ABA- and aba2-dependent manner (Gonzalez-Guzman M. et al. (2002) Plant Cell 14(8):1833-1846; Leon-Kloosterziel K M, et al. (1996) Plant J 10 (4):655-661). […] Thus, expression of PYL2^CA3 in developing seeds is sufficient to activate an ABA-dependent physiological process despite the depleted ABA levels present in the aba2 background.
Germination tests on paclobutrazol (Wako Chemicals, Japan) and NaCl were conducted as following. Columbia, aba2-1, aba2-1; 35S::GFP-PYL2 and aba2-1; 35S::GFP-PYL2″^3 seeds were surface sterilized and plated onto ⅓ MS agar media containing 25, 50 or 100 μM paclobutrazol or 0, 50, 200, 250 mM NaCl. Control wells contained ⅓ MS agar and 0.1% DMSO, the carrier solvent for paclobutrazol. The seeds were stratified for four days in darkness and then transferred to continuous illumination at room temperature (23° C.). Germination was assayed after 72 hours; seeds showing radicals at least ½ seed length or greater were scored as positive. Each experiment was performed in triplicate; experiments were performed on seeds that were ˜6-months post-harvest.

B1: PYL2^CA3: PYL2 mutant (H65P, V87F, F165V); expressed in plants as 35S-driven GFP fusion (protein)
chain: HHHHHHMSSSPAVKGLTDEEQKTLEPVIKTYHQFEPDPTTCTSLITQRIHAPASVVWPLIRRFDNPERYKPFVKRCRLISGDGDVGSVREVTFISGLPASTSTERLEFVDDDHRVLSFRVVGGEHRLKNYKSVTSVNEFLNQDSGKVYTVVLESYTVDIPEGNTEEDTKMVVDTVVKLNLQKLGVAATSAPMHDDE
levels of ABA-regulated genes (Em6, LEA, Rd29b) [1]: elevated levels of ABA-regulated genes | NaCl resistance of aba2 mutant seed germination (aba2-1 mutant seeds): suppressed | paclobutrazol resistance of aba2 mutant seed germination (aba2-1 mutant seeds): suppressed
